Laboratory results as given in the supplement of paper PMC9876800.

System: peptide library, one residue held at a place counted from the S/T acceptor
Test: relative phosphorylation of the sub-library (ratio to the mean residue at this position); higher = residue favoured
Conditions: human
How it was run: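 Relative sub-library phosphorylation, a ratio to the mean residue at that position, was obtained by phosphorimaging and densitometry of spots on streptavidin membranes. Before capture, purified recombinant kinases were incubated for 90 min under kinase-specific conditions with 50 μM biotinylated degenerate peptide sub-libraries and 50 μM ATP spiked with γ-32P-ATP. Each sub-library fixed one residue at one position around a central Ser/Thr.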

Chain of MAPK3, construct: Full length (P27361 whole entry, looked up): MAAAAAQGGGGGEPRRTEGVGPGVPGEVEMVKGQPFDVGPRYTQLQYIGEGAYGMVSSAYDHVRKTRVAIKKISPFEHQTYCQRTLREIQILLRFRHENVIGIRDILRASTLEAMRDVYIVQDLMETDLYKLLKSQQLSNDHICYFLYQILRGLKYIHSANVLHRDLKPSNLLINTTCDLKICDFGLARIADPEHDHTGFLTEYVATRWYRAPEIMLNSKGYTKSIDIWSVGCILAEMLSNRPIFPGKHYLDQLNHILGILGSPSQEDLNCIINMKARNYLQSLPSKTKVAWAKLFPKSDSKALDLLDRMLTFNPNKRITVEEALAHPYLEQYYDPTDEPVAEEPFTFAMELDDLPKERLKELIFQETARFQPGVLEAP
Chain of CSNK1G1, construct: aa21-end (Q9HCP0 21-422, looked up): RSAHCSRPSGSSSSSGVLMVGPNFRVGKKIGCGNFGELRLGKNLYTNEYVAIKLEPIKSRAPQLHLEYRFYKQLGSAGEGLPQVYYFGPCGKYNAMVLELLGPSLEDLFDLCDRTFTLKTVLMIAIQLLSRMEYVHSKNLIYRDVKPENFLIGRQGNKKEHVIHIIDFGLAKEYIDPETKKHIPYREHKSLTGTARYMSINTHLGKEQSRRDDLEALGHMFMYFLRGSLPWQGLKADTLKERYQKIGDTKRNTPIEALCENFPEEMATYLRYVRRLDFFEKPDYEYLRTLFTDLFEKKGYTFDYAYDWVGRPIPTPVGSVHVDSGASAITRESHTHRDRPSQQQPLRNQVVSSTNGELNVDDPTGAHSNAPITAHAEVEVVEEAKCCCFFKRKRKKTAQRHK
Chain of PRKD1, construct: Full length (Q15139 whole entry, looked up): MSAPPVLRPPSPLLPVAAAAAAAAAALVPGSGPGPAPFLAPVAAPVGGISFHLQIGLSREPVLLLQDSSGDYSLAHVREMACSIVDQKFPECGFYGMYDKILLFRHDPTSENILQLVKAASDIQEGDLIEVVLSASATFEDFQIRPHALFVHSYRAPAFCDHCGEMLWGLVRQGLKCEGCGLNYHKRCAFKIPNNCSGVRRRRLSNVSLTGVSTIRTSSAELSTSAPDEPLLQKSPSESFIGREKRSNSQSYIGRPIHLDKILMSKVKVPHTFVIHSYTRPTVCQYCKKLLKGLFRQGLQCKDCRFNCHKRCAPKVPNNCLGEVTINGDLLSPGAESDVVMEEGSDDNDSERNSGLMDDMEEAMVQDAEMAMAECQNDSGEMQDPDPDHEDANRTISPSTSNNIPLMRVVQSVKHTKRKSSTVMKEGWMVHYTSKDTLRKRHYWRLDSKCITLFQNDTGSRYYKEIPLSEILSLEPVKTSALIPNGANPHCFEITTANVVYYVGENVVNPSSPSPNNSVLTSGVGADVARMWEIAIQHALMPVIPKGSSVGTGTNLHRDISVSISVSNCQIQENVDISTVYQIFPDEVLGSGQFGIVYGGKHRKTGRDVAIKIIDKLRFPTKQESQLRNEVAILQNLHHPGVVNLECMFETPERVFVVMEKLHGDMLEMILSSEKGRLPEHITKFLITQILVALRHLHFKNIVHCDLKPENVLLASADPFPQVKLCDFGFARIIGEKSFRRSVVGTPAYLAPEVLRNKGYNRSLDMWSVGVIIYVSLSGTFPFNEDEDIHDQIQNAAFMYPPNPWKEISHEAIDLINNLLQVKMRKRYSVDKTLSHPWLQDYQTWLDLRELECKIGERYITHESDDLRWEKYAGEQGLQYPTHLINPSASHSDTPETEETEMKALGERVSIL

MAPK3, construct: Full length (from UniProt P27361)
relative phosphorylation
Conditions	at +1	at +2	at +3	at +4	at -1	at -2	at -3	at -4	at -5
A fixed	1.21	1.07	1.04	0.886	0.999	1.2	1.23	1.09	1.06
D fixed	0.0833	0.582	0.614	0.81	0.5	0.407	0.989	1.19	1.31
E fixed	0.0773	0.244	0.706	0.732	0.509	0.454	1.27	1.35	1.2
F fixed	0.372	1.1	1.15	1.22	0.802	0.577	0.808	0.946	1.09
G fixed	0.947	1.34	1.13	1.02	1	0.724	1.32	1.25	1.25
H fixed	0.217	1.26	1.11	1.07	0.975	0.461	0.949	0.914	1.11
I fixed	0.292	0.775	0.878	0.943	0.67	1.18	0.792	0.82	0.724
K fixed	0.179	1.58	0.699	1.31	1.35	0.345	0.663	0.874	0.904
L fixed	0.398	1.11	1.08	1.02	1.31	1.42	0.917	0.958	0.903
M fixed	0.276	0.987	0.971	1.09	1.39	1.29	1.08	1.09	0.907
N fixed	0.155	1.26	0.786	0.931	0.785	0.613	0.989	0.855	0.93
P fixed	11.6	0.628	1.56	0.896	1.26	4.97	1.74	1.18	1.11
Q fixed	0.159	0.788	0.736	1.01	1.1	0.82	1.05	0.942	0.975
R fixed	0.223	2.13	0.979	1.1	1.85	0.566	0.907	0.905	0.841
V fixed	0.291	0.711	0.879	0.903	0.746	1.22	0.837	0.777	0.783
W fixed	0.261	0.681	1.55	1.12	0.654	0.386	0.659	0.913	0.781
Y fixed	0.211	0.744	1.13	0.931	1.08	0.373	0.798	0.948	1.13
pThr fixed	0.338	0.662	0.663	0.75	0.373	0.941	1.23	1.23	1.41
pTyr fixed	0.323	0.38	1.01	1.08	0.444	0.686	1.29	1.37	1.25

PRKD1, construct: Full length (from UniProt Q15139)
relative phosphorylation
Conditions	at +1	at +2	at +3	at +4	at -1	at -2	at -3	at -4	at -5
A fixed	0.979	1.13	0.873	1.1	0.938	1.9	1.38	1.82	1.63
D fixed	0.653	1.21	1.14	1.37	0.869	0.32	0.243	0.514	0.411
E fixed	0.53	0.784	0.839	1.05	0.564	0.578	0.347	0.925	0.362
F fixed	0.964	0.86	0.811	0.885	0.467	0.609	0.47	0.792	0.668
G fixed	1.19	1.52	1.75	1.39	0.878	0.682	0.919	1.86	0.708
H fixed	1.05	1.04	0.95	1.23	0.823	0.726	0.802	0.897	0.506
I fixed	0.989	0.505	0.669	0.601	0.383	0.552	0.284	0.694	1.03
K fixed	0.619	0.518	0.582	0.651	1.79	1.78	1.46	1.09	0.414
L fixed	1.02	0.66	0.887	0.674	0.863	0.735	0.346	0.791	3.41
M fixed	1.22	0.946	0.886	0.924	0.945	1.79	0.653	1.25	0.713
N fixed	2.19	1.9	1.2	1.31	2.05	0.912	0.829	0.831	0.537
P fixed	0.369	1.81	2.37	1.46	2.43	0.593	1.49	0.656	1.34
Q fixed	1.47	1.1	1.13	1.25	1.27	2.26	0.865	1.26	0.953
R fixed	0.537	0.486	0.364	0.436	0.703	1.46	5.06	1.12	1.29
V fixed	1.04	0.688	0.735	0.624	0.613	1.01	0.411	0.844	1.61
W fixed	0.966	0.971	0.889	0.963	0.535	0.455	0.677	0.787	0.538
Y fixed	1.22	0.86	0.926	1.07	0.873	0.644	0.777	0.857	0.878
pThr fixed	0.596	0.624	0.842	0.939	0.207	0.27	0.295	0.467	0.28
pTyr fixed	0.774	0.836	0.826	1.12	0.69	0.357	0.306	0.533	0.624

CSNK1G1, construct: aa21-end (from UniProt Q9HCP0)
relative phosphorylation
Conditions	at +1	at +2	at +3	at +4	at -1	at -2	at -3	at -4	at -5
A fixed	0.872	1.05	1.29	1.13	1.38	2.1	0.918	1.23	1.22
D fixed	0.317	0.551	0.757	0.828	0.406	1	5.14	1.25	1.11
E fixed	0.4	0.293	0.823	0.662	0.47	1.13	2.32	1.12	0.901
F fixed	0.853	1.21	1.31	1.45	0.713	0.511	0.471	0.984	0.913
G fixed	0.611	1.02	1.62	1.19	1.53	1.19	0.734	1.07	1.04
H fixed	0.731	1.71	1.03	0.976	0.983	0.714	0.633	0.918	1.1
I fixed	2.43	1.06	0.755	0.921	0.927	1.11	0.42	0.799	0.734
K fixed	0.461	1.03	0.731	0.812	1.27	0.674	0.644	0.981	1.44
L fixed	2.32	0.922	0.962	0.894	1.06	0.949	0.482	0.81	0.892
M fixed	1.77	0.951	0.957	0.943	1.01	0.63	0.389	0.796	0.801
N fixed	0.619	0.976	0.842	0.786	0.597	1.53	0.758	0.877	1.02
P fixed	0.326	0.369	0.774	1.15	1.36	1.08	0.646	1	0.87
Q fixed	0.685	0.798	0.732	0.839	0.886	1.08	0.546	0.76	0.798
R fixed	0.771	1.01	0.884	0.713	1.28	0.919	1.07	0.814	1.05
V fixed	2.03	1.01	0.76	0.947	0.978	1.26	0.582	0.763	0.875
W fixed	0.861	1.25	1.4	1.35	1.25	0.608	0.636	1.72	1.24
Y fixed	0.935	1.79	1.37	1.41	0.898	0.511	0.604	1.11	1
pThr fixed	0.575	0.524	0.83	1.73	0.534	3.07	34	4.36	1.61
pTyr fixed	0.734	3.17	4.7	1.83	0.64	2.15	5.42	3.67	2.21
